The supplement of paper PMC5998384

Tests used:
HeLa Kyoto [1] = assay: solubility in G1/S (NP-40 vs SDS abundance) (log2 ratio); higher = more soluble; details: cell cycle stage: G1/S
HeLa Kyoto [2] = assay: melting temperature (median over replicates), in situ; higher = more thermally stable
HeLa Kyoto [3] = assay: solubility change mitosis vs G1/S (difference of NP-40 vs SDS log2 ratios) (log2 ratio difference); higher = more soluble in mitosis
HeLa Kyoto [4] = assay: thermal stability score vs G1/S (z-score of summed log2 fold changes over temperatures); higher = more thermally stable than in G1/S
[5] = cell cycle stage: early G1 (4.5 h after nocodazole release)
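For melting temperature (median over replicates), in situ in this document: HeLa Kyoto cells synchronized by double thymidine or nocodazole block, proteins quantified by TMT10plex mass spectrometry, three independent biological replicates.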
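For solubility change mitosis vs G1/S (difference of NP-40 vs SDS log2 ratios) in this document: synchronized HeLa Kyoto cells (double thymidine block for G1/S, nocodazole release for mitosis), protein amounts in NP-40 versus SDS lysates quantified by mass spectrometry, three biological replicates.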
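For solubility in G1/S (NP-40 vs SDS abundance) in this document: HeLa Kyoto cells arrested at G1/S by double thymidine block, proteins quantified by TMT10plex mass spectrometry in mild NP-40 versus SDS extracts, three biological replicates.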
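For thermal stability score vs G1/S (z-score of summed log2 fold changes over temperatures) in this document: synchronized HeLa Kyoto cells, proteins quantified by TMT10plex mass spectrometry, three biological replicates, mitosis taken 0.5 h after nocodazole release, G1/S directly after double thymidine block.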

| Sequence | solubility in G1/S (log2) (HeLa Kyoto [1]) | melting temperature (HeLa Kyoto [2]; cell cycle stage: G1/S) [°C] | melting temperature (HeLa Kyoto [2]; cell cycle stage: mitosis) [°C] | solubility change mitosis (log2) (HeLa Kyoto [3]) | thermal stability score (HeLa Kyoto [4]; [5]) | thermal stability score (HeLa Kyoto [4]; cell cycle stage: mitosis) |
| --- | --- | --- | --- | --- | --- | --- |
| MMGHRPVLVLSQNTKRESGRKVQSGNINAAKTIADIIRTCLGPKSMMKMLLDPMGGIVMTNDGNAILREIQVQHPAAKSMIEISRTQDEEVGDGTTSVIILAGEMLSVAEHFLEQQMHPTVVISAYRKALDDMISTLKKISIPVDISDSDMMLNIINSSITTKAISRWSSLACNIALDAVKMVQFEENGRKEIDIKKYARVEKIPGGIIEDSCVLRGVMINKDVTHPRMRRYIKNPRIVLLDSSLEYKKGESQTDIEITREEDFTRILQMEEEYIQQLCEDIIQLKPDVVITEKGISDLAQHYLMRANITAIRRVRKTDNNRIARACGARIVSRPEELREDDVGTGAGLLEIKKIGDEYFTFITDCKDPKACTILLRGASKEILSEVERNLQDAMQVCRNVLLDPQLVPGGGASEMAVAHALTEKSKAMTGVEQWPYRAVAQALEVIPRTLIQNCGASTIRLLTSLRAKHTQENCETWGVNGETGTLVDMKELGIWEPLAVKLQTYKTAVETAVLLLRIDDIVSGHKKKGDDQSRQGGAPDAGQE [CCT3] | 0.216 | 54 | 53.6 | -0.131 | 0.0574 | -0.798 |
| MMLGTEGGEGFVVKVRGLPWSCSADEVQRFFSDCKIQNGAQGIRFIYTREGRPSGEAFVELESEDEVKLALKKDRETMGHRYVEVFKSNNVEMDWVLKHTGPNSPDTANDGFVRLRGLPFGCSKEEIVQFFSGLEIVPNGITLPVDFQGRSTGEAFVQFASQEIAEKALKKHKERIGHRYIEIFKSSRAEVRTHYDPPRKLMAMQRPGPYDRPGAGRGYNSIGRGAGFERMRRGAYGGGYGGYDDYNGYNDGYGFGSDRFGRDLNYCFSGMSDHRYGDGGSTFQSTTGHCVHMRGLPYRATENDIYNFFSPLNPVRVHIEIGPDGRVTGEADVEFATHEDAVAAMSKDKANMQHRYVELFLNSTAGASGGAYEHRYVELFLNSTAGASGGAYGSQMMGGMGLSNQSSYGGPASQQLSGGYGGGYGGQSSMSGYDQVLQENSSDFQSNIA [HNRNPH1] | 0.047 | 47.5 | 48.2 | -0.00635 | 3.39 | 8.7 |
| MMNKLYIGNLSPAVTADDLRQLFGDRKLPLAGQVLLKSGYAFVDYPDQNWAIRAIETLSGKVELHGKIMEVDYSVSKKLRSRKIQIRNIPPHLQWEVLDGLLAQYGTVENVEQVNTDTETAVVNVTYATREEAKIAMEKLSGHQFENYSFKISYIPDEEVSSPSPPQRAQRGDHSSREQGHAPGGTSQARQIDFPLRILVPTQFVGAIIGKEGLTIKNITKQTQSRVDIHRKENSGAAEKPVTIHATPEGTSEACRMILEIMQKEADETKLAEEIPLKILAHNGLVGRLIGKEGRNLKKIEHETGTKITISSLQDLSIYNPERTITVKGTVEACASAEIEIMKKLREAFENDMLAVNQQANLIPGLNLSALGIFSTGLSVLSPPAGPRGAPPAAPYHPFTTHSGYFSSLYPHHQFGPFPHHHSYPEQEIVNLFIPTQAVGAIIGKKGAHIKQLARFAGASIKIAPAEGPDVSERMVIITGPPEAQFKAQGRIFGKLKEENFFNPKEEVKLEAHIRVPSSTAGRVIGKGGKTVNELQNLTSAEVIVPRDQTPDENEEVIVRIIGHFFASQTAQRKIREIVQQVKQQEQKYPQGVASQRSK [IGF2BP2] | -0.0149 | 48.7 | 47.8 | 0.0614 | -0.347 | -0.134 |
| MMRLRGSGMLRDLLLRSPAGVSATLRRAQPLVTLCRRPRGGGRPAAGPAAAARLHPWWGGGGWPAEPLARGLSSSPSEILQELGKGSTHPQPGVSPPAAPAAPGPKDGPGETDAFGNSEGKELVASGENKIKQGLLPSLEDLLFYTIAEGQEKIPVHKFITALKSTGLRTSDPRLKECMDMLRLTLQTTSDGVMLDKDLFKKCVQSNIVLLTQAFRRKFVIPDFMSFTSHIDELYESAKKQSGGKVADYIPQLAKFSPDLWGVSVCTVDGQRHSTGDTKVPFCLQSCVKPLKYAIAVNDLGTEYVHRYVGKEPSGLRFNKLFLNEDDKPHNPMVNAGAIVVTSLIKQGVNNAEKFDYVMQFLNKMAGNEYVGFSNATFQSERESGDRNFAIGYYLKEKKCFPEGTDMVGILDFYFQLCSIEVTCESASVMAATLANGGFCPITGERVLSPEAVRNTLSLMHSCGMYDFSGQFAFHVGLPAKSGVAGGILLVVPNVMGMMCWSPPLDKMGNSVKGIHFCHDLVSLCNFHNYDNLRHFAKKLDPRREGGDQRVKSVINLLFAAYTGDVSALRRFALSAMDMEQRDYDSRTALHVAAAEGHVEVVKFLLEACKVNPFPKDRWNNTPMDEALHFGHHDVFKILQEYQVQYTPQGDSDNGKENQTVHKNLDGLL | 0.0237 | 49.7 | 50.4 | -0.0383 | 0.55 | 2.21 |
| MNAGSDPVVIVSAARTIIGSFNGALAAVPVQDLGSTVIKEVLKRATVAPEDVSEVIFGHVLAAGCGQNPVRQASVGAGIPYSVPAWSCQMICGSGLKAVCLAVQSIGIGDSSIVVAGGMENMSKAPHLAYLRTGVKIGEMPLTDSILCDGLTDAFHNCHMGITAENVAKKWQVSREDQDKVAVLSQNRTENAQKAGHFDKEIVPVLVSTRKGLIEVKTDEFPRHGSNIEAMSKLKPYFLTDGTGTVTPANASGINDGAAAVVLMKKSEADKRGLTPLARIVSWSQVGVEPSIMGIGPIPAIKQAVTKAGWSLEDVDIFEINEAFAAVSAAIVKELGLNPEKVNIEGGAIALGHPLGASGCRILVTLLHTLERMGRSRGVAALCIGGGMGIAMCVQRE [ACAT2] | 0.305 | 58.4 | 58.2 | -0.0395 | -0.261 | -1.17 |
| MNEVSVIKEGWLHKRGEYIKTWRPRYFLLKSDGSFIGYKERPEAPDQTLPPLNNFSVAECQLMKTERPRPNTFVIRCLQWTTVIERTFHVDSPDEREEWMRAIQMVANSLKQRAPGEDPMDYKCGSPSDSSTTEEMEVAVSKARAKVTMNDFDYLKLLGKGTFGKVILVREKATGRYYAMKILRKEVIIAKDEVAHTVTESRVLQNTRHPFLTALKYAFQTHDRLCFVMEYANGGELFFHLSRERVFTEERARFYGAEIVSALEYLHSRDVVYRDIKLENLMLDKDGHIKITDFGLCKEGISDGATMKTFCGTPEYLAPEVLEDNDYGRAVDWWGLGVVMYEMMCGRLPFYNQDHERLFELILMEEIRFPRTLSPEAKSLLAGLLKKDPKQRLGGGPSDAKEVMEHRFFLSINWQDVVQKKLLPPFKPQVTSEVDTRYFDDEFTAQSITITPPDRYDSLGLLELDQRTHFPQFSYSASIRE [AKT2] | -0.0498 | 50.5 | 50.2 | -0.26 | 1.03 | 0.619 |
| MNGEADCPTDLEMAAPKGQDRWSQEDMLTLLECMKNNLPSNDSSKFKTTESHMDWEKVAFKDFSGDMCKLKWVEISNEVRKFRTLTELILDAQEHVKNPYKGKKLKKHPDFPKKPLTPYFRFFMEKRAKYAKLHPEMSNLDLTKILSKKYKELPEKKKMKYIQDFQREKQEFERNLARFREDHPDLIQNAKKSDIPEKPKTPQQLWYTHEKKVYLKVRPDATTKEVKDSLGKQWSQLSDKKRLKWIHKALEQRKEYEEIMRDYIQKHPELNISEEGITKSTLTKAERQLKDKFDGRPTKPPPNSYSLYCAELMANMKDVPSTERMVLCSQQWKLLSQKEKDAYHKKCDQKKKDYEVELLRFLESLPEEEQQRVLGEEKMLNINKKQATSPASKKPAQEGGKGGSEKPKRPVSAMFIFSEEKRRQLQEERPELSESELTRLLARMWNDLSEKKKAKYKAREAALKAQSERKPGGEREERGKLPESPKRAEEIWQQSVIGDYLARFKNDRVKALKAMEMTWNNMEKKEKLMWIKKAAEDQKRYERELSEMRAPPAATNSSKKMKFQGEPKKPPMNGYQKFSQELLSNGELNHLPLKERMVEIGSRWQRISQSQKEHYKKLAEEQQKQYKVHLDLWVKSLSPQDRAAYKEYISNKRKSMTKLRGPNPKSSRTTLQSKSESEEDDEEDEDDEDEDEEEEDDENGDSSEDGGDSSESSSEDESEDGDENEEDDEDEDDDEDDDEDEDNESEGSSSSSSSSGDSSDSDSN [UBTF] | -1.89 | 47.2 |  | 0.149 | 8.89 | 15.5 |
| MNGTLDHPDQPDLDAIKMFVGQVPRTWSEKDLRELFEQYGAVYEINVLRDRSQNPPQSKGCCFVTFYTRKAALEAQNALHNMKVLPGMHHPIQMKPADSEKNNAVEDRKLFIGMISKKCTENDIRVMFSSFGQIEECRILRGPDGLSRGCAFVTFTTRAMAQTAIKAMHQAQTMEGCSSPMVVKFADTQKDKEQKRMAQQLQQQMQQISAASVWGNLAGLNTLGPQYLALYLQLLQQTASSGNLNTLSSLHPMGGLNAMQLQNLAALAAAASAAQNTPSGTNALTTSSSPLSVLTSSGSSPSSSSSNSVNPIASLGALQTLAGATAGLNVGSLAGMAALNGGLGSSGLSNGTGSTMEALTQAYSGIQQYAAAALPTLYNQNLLTQQSIGAAGSQKEGPEGANLFIYHLPQEFGDQDLLQMFMPFGNVVSAKVFIDKQTNLSKCFGFVSYDNPVSAQAAIQSMNGFQIGMKRLKVQLKRSKNDSKPY [CELF1] | 0.269 | 47.5 | 48.1 | -0.0537 | 1.56 | 2.85 |
